B1: CTNNBL1 (natural protein)
chain: MDVGELLSYQPNRGTKRPRDDEEEEQKMRRKQTGTRERGRYREEEMTVVEEADDDKKRLLQIIDRDGEEEEEEEEPLDESSVKKMILTFEKRSYKNQELRIKFPDNPEKFMESELDLNDIIQEMHVVATMPDLYHLLVELNAVQSLLGLLGHDNTDVSIAVVDLLQELTDIDTLHESEEGAEVLIDALVDGQVVALLVQNLERLDESVKEEADGVHNTLAIVENMAEFRPEMCTEGAQQGLLQWLLKRLKAKMPFDANKLYCSEVLAILLQDNDENRELLGELDGIDVLLQQLSVFKRHNPSTAEEQEMMENLFDSLCSCLMLSSNRERFLKGEGLQLMNLMLREKKISRSSALKVLDHAMIGPEGTDNCHKFVDILGLRTIFPLFMKSPRKIKKVGTTEKEHEEHVCSILASLLRNLRGQQRTRLLNKFTENDSEKVDRLMELHFKYLGAMQVADKKIEGEKHDMVRRGEIIDNDTEEEFYLRRLDAGLFVLQHICYIMAEICNANVPQIRQRVHQILNMRGSSIKIVRHIIKEYAENIGDGRSPEFRENEQKRILGLLENF
B2: PRP19 (natural protein)
chain: MSLICSISNEVPEHPCVSPVSNHVYERRLIEKYIAENGTDPINNQPLSEEQLIDIKVAHPIRPKPPSATSIPAILKALQDEWDAVMLHSFTLRQQLQTTRQELSHALYQHDAACRVIARLTKEVTAAREALATLKPQAGLIVPQAVPSSQPSVVGAGEPMDLGELVGMTPEIIQKLQDKATVLTTERKKRGKTVPEELVKPEELSKYRQVASHVGLHSASIPGILALDLCPSDTNKILTGGADKNVVVFDKSSEQILATLKGHTKKVTSVVFHPSQDLVFSASPDATIRIWSVPNASCVQVVRAHESAVTGLSLHATGDYLLSSSDDQYWAFSDIQTGRVLTKVTDETSGCSLTCAQFHPDGLIFGTGTMDSQIKIWDLKERTNVANFPGHSGPITSIAFSENGYYLATAADDSSVKLWDLRKLKNFKTLQLDNNFEVKSLIFDQSGTYLALGGTDVQIYICKQWTEILHFTEHSGLTTGVAFGHHAKFIASTGMDRSLKFYSL
B3: AD-002 (natural protein)
chain: MTTAARPTFEPARGGRGKGEGDLSQLSKQYSSRDLPSHTKIKYRQTTQDAPEEVRNRDFRRELEERERAAAREKNRDRPTREHTTSSSVSKKPRLDQIPAANLDADDPLTDEEDEDFEEESDDDDTAALLAELEKIKKERAEEQARKEQEQKAEEERIRMENILSGNPLLNLTGPSQPQANFKVKRRWDDDVVFKNCAKGVDDQKKDKRFVNDTLRSEFHKKFMEKYIK
B4: Spf27 (natural protein)
chain: MAGTGLVAGEVVVDALPYFDQGYEAPGVREAAAALVEEETRRYRPTKNYLSYLTAPDYSAFETDIMRNEFERLAARQPIELLSMKRYELPAPSSGQKNDITAWQECVNNSMAQLEHQAVRIENLELMSQHGCNAWKVYNENLVHMIEHAQKELQKLRKHIQDLNWQRKNMQLTAGSKLREMESNWVSLVSKNYEIERTIVQLENEIYQIKQQHGEANKENIRQDF
B5: PLRG1 (natural protein)
chain: MVEEVQKHSVHTLVFRSLKRTHDMFVADNGKPVPLDEESHKRKMAIKLRNEYGPVLHMPTSKENLKEKGPQNATDSYVHKQYPANQGQEVEYFVAGTHPYPPGPGVALTADTKIQRMPSESAAQSLAVALPLQTKADANRTAPSGSEYRHPGASDRPQPTAMNSIVMETGNTKNSALMAKKAPTMPKPQWHPPWKLYRVISGHLGWVRCIAVEPGNQWFVTGSADRTIKIWDLASGKLKLSLTGHISTVRGVIVSTRSPYLFSCGEDKQVKCWDLEYNKVIRHYHGHLSAVYGLDLHPTIDVLVTCSRDSTARIWDVRTKASVHTLSGHTNAVATVRCQAAEPQIITGSHDTTIRLWDLVAGKTRVTLTNHKKSVRAVVLHPRHYTFASGSPDNIKQWKFPDGSFIQNLSGHNAIINTLTVNSDGVLVSGADNGTMHLWDWRTGYNFQRVHAAVQPGSLDSESGIFACAFDQSESRLLTAEADKTIKVYREDDTATEETHPVSWKPEIIKRKRF
B6: Jarid2 (natural protein)
chain: MSKERPKRNIIQKKYDDSDGIPWSEERVVRKVLYLSLKEFKNSQKRQHAEGIAGSLKTVNGLLGNDQSKGLGPASEQSENEKDDASQVSSTSNDVSSSDFEEGPSRKRPRLQAQRKFAQSQPNSPSTTPVKIVEPLLPPPATQISDLSKRKPKTEDFLTFLCLRGSPALPNSMVYFGSSQDEEEVEEEDDETEDVKTATNNASSSCQSTPRKGKTHKHVHNGHVFNGSSRSTREKEPVQKHKSKEATPAKEKHSDHRADSRREQASANHPAAAPSTGSSAKGLAATHHHPPLHRSAQDLRKQVSKVNGVTRMSSLGAGVTSAKKMREVRPSPSKTVKYTATVTKGAVTYTKAKRELVKDTKPNHHKPSSAVNHTISGKTESSNAKTRKQVLSLGGASKSTGPAVNGLKVSGRLNPKSCTKEVGGRQLREGLQLREGLRNSKRRLEEAHQAEKPQSPPKKMKGAAGPAEGPGKKAPAERGLLNGHVKKEVPERSLERNRPKRATAGKSTPGRQAHGKADSASCENRSTSQPESVHKPQDSGKAEKGGGKAGWAAMDEIPVLRPSAKEFHDPLIYIESVRAQVEKFGMCRVIPPPDWRPECKLNDEMRFVTQIQHIHKLGRRWGPNVQRLACIKKHLKSQGITMDELPLIGGCELDLACFFRLINEMGGMQQVTDLKKWNKLADMLRIPRTAQDRLAKLQEAYCQYLLSYDSLSPEEHRRLEKEVLMEKEILEKRKGPLEGHTENDHHKFHPLPRFEPKNGLIHGVAPRNGFRSKLKEVGQAQLKTGRRRLFAQEKEVVKEEEEDKGVLNDFHKCIYKGRSVSLTTFYRTARNIMSMCFSKEPAPAEIEQEYWRLVEEKDCHVAVHCGKVDTNTHGSGFPVGKSEPFSRHGWNLTVLPNNTGSILRHLGAVPGVTIPWLNIGMVFSTSCWSRDQNHLPYIDYLHTGADCIWYCIPAEEENKLEDVVHTLLQANGTPGLQMLESNVMISPEVLCKEGIKVHRTVQQSGQFVVCFPGSFVSKVCCGYSVSETVHFATTQWTSMGFETAKEMKRRHIAKPFSMEKLLYQIAQAEAKKENGPTLSTISALLDELRDTELRQRRQLFEAGLHSSARYGSHDGSSTVADGKKKPRKWLQLETSERRCQICQHLCYLSMVVQENENVVFCLECALRHVEKQKSCRGLKLMYRYDEEQIISLVNQICGKVSGKNGSIENCLSKPTPKRGPRKRATVDVPPSRLSASSSSKSASSSS
B7: C17orf96 (natural protein)
chain: METLCPAPRLAVPASPRGSPCSPTPRKPCRGTQEFSPLCLRALAFCALAKPRASSLGPGPGELAARSPVLRGPQAPLRPGGWAPDGLKHLWAPTGRPGVPNTAAGEDADVAACPRRGEEEEGGGGFPHFGVRSCAPPGRCPAPPHPRESTTSFASAPPRPAPGLEPQRGPAASPPQEPSSRPPSPPAGLSTEPAGPGTAPRPFLPGQPAEVDGNPPPAAPEAPAASPSTASPAPAAPGDLRQEHFDRLIRRSKLWCYAKGFALDTPSLRRGPERPPAKGPARGAAKKRRLPAPPPRTAQPRRPAPTLPTTSTFSLLNCFPCPPALVVGEDGDLKPASSLRLQGDSKPPPAHPLWRWQMGGPAVPEPPGLKFWGINMDES
B8: C10orf12 (natural protein)
chain: MQRMIQQFAAEYTSKNSSTQDPSQPNSTKNQSLPKASPVTTSPTAATTQNPVLSKLLMADQDSPLDLTVRKSQSEPSEQDGVLDLSTKKSPCAGSTSLSHSPGCSSTQGNGENSTEAKAVDSNNQSKSPLEKFMVKLCTHHQKQFIRVLNDLYTESQPGTEDLQPSDSGAMDVSTCNAGCAQLSTKHKEKDALCLDMKSSASVDLFVDSSDSHSPLHLTEQTPKKPPPEINPVDGRENALTVVQKDSSELPTTKSNSINSSSVDSFTPGYLTASNCSSVNFHHIPKILEGQTTGQEQDTNVNICEDGKDHMQSSALVESLITVKMAAENSEEGNTCIIPQRNLFKALSEEAWNSGFMGNSSRTADKENTLQCPKTPLRQDLEANEQDARPKQENHLHSLGRNKVGYHLHPSDKGQFDHSKDGWLGPGPMPAVHKAANGHSRTKMISTSIKTARKSKRASGLRINDYDNQCDVVYISQPITECHFENQKSILSSRKTARKSTRGYFFNGDCCELPTVRTLARNLHSQEKASCSALASEAVFTPKQTLTIPAPRHTVDVQLPREDNPEEPSKEITSHEEGGGDVSPRKEPQEPEVCPTKIKPNLSSSPRSEETTASSLVWPLPAHLPEEDLPEGGSTVSAPTASGMSSPEHNQPPVALLDTEEMSVPQDCHLLPSTESFSGGVSEDVISRPHSPPEIVSREESPQCSENQSSPMGLEPPMSLGKAEDNQSISAEVESGDTQELNVDPLLKESSTFTDENPSETEESEAAGGIGKLEGEDGDVKCLSEKDTYDTSIDSLEENLDKKKKGKKFPEASDRCLRSQLSDSSSADRCLRNQSSDSSSACLEIKVPKNPSAKRSKKEGHPGGTTPKGLLPDSFHTETLEDTEKPSVNERPSEKDAEQEGEGGGIITRQTLKNMLDKEVKELRGEIFPSRDPITTAGQPLPGERLEIYVQSKMDEKNAHIPSESIACKRDPEQAKEEPGHIPTQHVEEAVNEVDNENTQQKDDESDAPCSSLGLSSSGSGDAARAPKSVPRPKRLTSSTYNLRHAHSLGSLDASKVTSEKEAAQVNPIMPKENGASESGDPLDEDDVDTVVDEQPKFMEWCAEEENQELIANFNAQYMKVQKGWIQLEKEGQPTPRARNKSDKLKEIWKSKKRSRKCRSSLESQKCSPVQMLFMTNFKLSNVCKWFLETTETRSLVIVKKLNTRLPGDVPPVKHPLQKYAPSSLYPSSLQAERLKKHLKKFPGATPAKNNWKMQKLWAKFRENPDQVEPEDGSDVSPGPNSEDSIEEVKEDRNSHPPANLPTPASTRILRKYSNIRGKLRAQQRLIKNEKMECPDALAVESKPSRKSVCINPLMSPKLALQVDADGFPVKPKSTEGMKGRKGKQVSEILPKAEVQSKRKRTEGSSPPDSKNKGPTVKASKEKHADGATKTPAAKRPAARDRSSQPPKKTSLKENKVKIPKKSAGKSCPPSRKEKENTNKRPSQSIASETLTKPAKQKGAGESSSRPQKATNRKQSSGKTRARPSTKTPESSAAQRKRKLKAKLDCSHSKRRRLDAK
B9: AEBP2 (natural protein)
chain: MAAAITDMADLEELSRLSPLPPGSPGSAARGRAEPPEEEEEEEEEEEEAEAEAVAALLLNGGSGGGGGGGGGGVGGGEAETMSEPSPESASQAGEDEDEEEDDEEEEDESSSSGGGEEESSAESLVGSSGGSSSDETRSLSPGAASSSSGDGDGKEGLEEPKGPRGSQGGGGGGSSSSSVVSSGGDEGYGTGGGGSSATSGGRRGSLEMSSDGEPLSRMDSEDSISSTIMDVDSTISSGRSTPAMMNGQGSTTSSSKNIAYNCCWDQCQACFNSSPDLADHIRSIHVDGQRGGVFVCLWKGCKVYNTPSTSQSWLQRHMLTHSGDKPFKCVVGGCNASFASQGGLARHVPTHFSQQNSSKVSSQPKAKEESPSKAGMNKRRKLKNKRRRSLPRPHDFFDAQTLDAIRHRAICFNLSAHIESLGKGHSVVFHSTVIAKRKEDSGKIKLLLHWMPEDILPDVWVNESERHQLKTKVVHLSKLPKDTALLLDPNIYRTMPQKRLKRTLIRKVFNLYLSKQ

These binders were tested against CDC5L–GFP (UniProt Q99459 1-802) (assay: affinity purification with mass spectrometry).
Sequence of CDC5L–GFP (Q99459 whole entry): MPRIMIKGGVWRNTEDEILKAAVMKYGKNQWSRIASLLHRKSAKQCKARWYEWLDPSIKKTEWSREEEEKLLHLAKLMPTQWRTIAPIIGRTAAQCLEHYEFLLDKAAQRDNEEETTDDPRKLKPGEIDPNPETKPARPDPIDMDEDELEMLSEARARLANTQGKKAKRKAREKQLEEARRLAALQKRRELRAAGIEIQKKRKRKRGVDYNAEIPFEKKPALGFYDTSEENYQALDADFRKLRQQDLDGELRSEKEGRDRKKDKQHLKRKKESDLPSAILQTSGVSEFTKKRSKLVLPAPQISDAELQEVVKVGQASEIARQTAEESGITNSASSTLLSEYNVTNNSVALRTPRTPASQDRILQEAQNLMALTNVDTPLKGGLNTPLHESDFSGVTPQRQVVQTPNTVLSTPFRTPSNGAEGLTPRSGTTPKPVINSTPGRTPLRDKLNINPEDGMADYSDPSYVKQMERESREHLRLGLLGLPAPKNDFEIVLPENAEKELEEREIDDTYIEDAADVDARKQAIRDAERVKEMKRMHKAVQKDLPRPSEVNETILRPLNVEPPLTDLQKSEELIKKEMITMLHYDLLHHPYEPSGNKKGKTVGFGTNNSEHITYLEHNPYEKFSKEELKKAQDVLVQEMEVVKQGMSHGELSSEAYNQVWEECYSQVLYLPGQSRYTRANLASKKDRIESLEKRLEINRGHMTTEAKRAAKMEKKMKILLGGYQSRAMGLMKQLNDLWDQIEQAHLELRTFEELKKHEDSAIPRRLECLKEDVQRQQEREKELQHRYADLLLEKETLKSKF

Row | Binder | stoichiometry N | stoichiometry with CDC5L as a dimer (CDC5L 2)
1 | B1 | 0.06 relative to CDC5L | 0.12 per CDC5L dimer
2 | B2 | 2.08 relative to CDC5L | 4.16 per CDC5L dimer
3 | B3 | 0.36 relative to CDC5L | 0.72 per CDC5L dimer
4 | B4 | 0.62 relative to CDC5L | 1.24 per CDC5L dimer
5 | B5 | 0.37 relative to CDC5L | 0.72 per CDC5L dimer

What follows are binders tested against EED-GFP (UniProt O75530 1-441) (assay: affinity purification with mass spectrometry).
Sequence of EED-GFP (O75530 whole entry): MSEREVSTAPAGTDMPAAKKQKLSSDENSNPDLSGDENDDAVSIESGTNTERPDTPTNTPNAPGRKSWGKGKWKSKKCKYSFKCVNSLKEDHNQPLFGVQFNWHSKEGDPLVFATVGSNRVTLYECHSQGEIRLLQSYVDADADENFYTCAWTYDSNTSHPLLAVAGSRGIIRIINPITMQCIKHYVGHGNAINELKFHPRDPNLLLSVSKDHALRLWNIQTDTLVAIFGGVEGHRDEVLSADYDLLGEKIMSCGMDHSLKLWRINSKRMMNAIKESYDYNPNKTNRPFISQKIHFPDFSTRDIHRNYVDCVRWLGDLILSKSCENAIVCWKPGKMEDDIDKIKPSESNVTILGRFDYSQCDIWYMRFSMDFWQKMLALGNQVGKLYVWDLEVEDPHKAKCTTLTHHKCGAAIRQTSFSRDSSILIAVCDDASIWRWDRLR

Row | Binder | stoichiometry N
6 | B6 | 0.12 relative to EED
7 | B7 | 0.47 relative to EED
8 | B8 | ~0.06 relative to the core subunits
9 | B9 | 0.2 relative to EED

Source: publication PMC3592467 (Nucleic Acids Research, 2012)
